Source: patent US20250230224A1

B1: 8DC4.4 IgG (antibody, V domains shown)
VH: QVQLQESGPGLVKPSQTLSLTCTVSGGSISSDNYFWTWIRQSPGKGLEWLGHISYSGRSYTNLSLKRRLTISVDTSKNQFSLNLNSVTAADTAVYYCARERLPPGRGYDMDVWGQGTTVTVSS
VL: DIVMTQSPSSVSASVGDRVTITCRASRDISIYLNWYQQKPGKAPKLLIYAASNLETGVPSRFSGSGSGTDFTLTISSLQPEDVATYYCQQSYNTPLTFGGGTKLEIKR
B2: 4C4.4 IgG (antibody, V domains shown)
VH: QVQLQESGPGLVKPSQTLSLTCTVSGASISNSPYFWNWFRQFPGKGLEWIGYIYWSGSTNYNPSLKSRLAMSVDTSKNQFSLKLTSATAADTAVYYCARDQGGGTVVKENWFDPWGQGTLVTVSS
VL: DIVMTQSPSSLSASVGDRLTMTCQASQDIGKHLNWYQQKAGKPPKLLIYGASNLKTGVPSRFSAGVSWTDFTFTISNVQPEDVATYYCQQSYSTPPTFGQGTKVEIKR
B3: Hu6F11 IgG (antibody, V domains shown)
VH: EVQLVESGGGLVKPGGSLRLSCAASGFTFSNYGMSWVRQAPGKGLEWVASISSGGSYIYYPDSVKGRFTISRDNAKNSLYLQMNSLRAEDTAVYYCARRKGYDSLYWYFDVWGQGTLVTVSS
VL: DVVMTQSPSSLSAFVGDRVTITCRASQGIRSYLAWFQQKPGKAPKLLIYAASTLQSGVPSRFSGSGSGTEFTLTVSGLQPEDFATYYCQQYNSYPLTFGGGTRLEIKR
B4: 6F5.4 IgG (antibody, V domains shown)
VH: EVQLVPSGGNLVQPGGSLRLSCAATGPIDYHWMTWVRQAPGQGLEWVANINLDGTEKFYVDSVKGRFTVSRDNRKSSVFLQMNNLRVDDTAVYYCARLQWGERDGWLSPWGQGTLVTVSS
VL: DIVMTQSPPSLSASVGDRVRLTCRASQSIGRSLNWYQQKPGKAPKLLIYDASALHSGVPSRFSGSGSGTDFTLTISGLQPEDFATYYCQQTNDLPVTFGGGTKLEIKR
B5: Hu6F13.4 IgG (antibody, V domains shown)
VH: QVQLVQSGAEVKKPGASVKVSCKASGYSFTSYWMHWVRQAPGQGLEWIGFINPINGGIIYNEKFRFRATLTVDTSISTAYMELSRLRSDDTAVYYCARAGYYGSSRHFDVWGQGTLLTVSS
VL: ETTLTQSPSSLSASVGDRVTITCRASQGIRNYLAWYQQKPGKAPKLLIYDASNLETGVPSRFSGSGSGTDFTFTISSLQPEDFATYYCLQTSSTPWTFGQGTKVDIKR

Key:
[1] = target: Mosaic botulinum neurotoxin BoNT/CD (Clostridium botulinum); experiment: KinExA flow fluorimetry, solution phase, IgG
[2] = target: Mosaic botulinum neurotoxin BoNT/DC (Clostridium botulinum); experiment: KinExA flow fluorimetry, solution phase, IgG
[3] = target: BoNT/F6; experiment: KinExA, IgG
[4] = target: BoNT/F7; experiment: KinExA, IgG
[5] = target: BoNT/F3; experiment: KinExA, IgG
[6] = target: BoNT/F5; experiment: KinExA, IgG
[7] = target: BoNT/F2; experiment: KinExA, IgG
[8] = target: BoNT/F4; experiment: KinExA, IgG

| Binder | Kd [1] [nM] | Kd [2] [nM] | Kd [3] [nM] | Kd [4] [nM] | Kd [5] [nM] | Kd [6] [nM] | Kd [7] [nM] | Kd [8] [nM] |
| --- | --- | --- | --- | --- | --- | --- | --- | --- |
| B1 | 0.117 | 0.146 | – | – | – | – | – | – |
| B2 | 0.016 | 0.087 | – | – | – | – | – | – |
| B3 | – | – | 0.0037 | 0.00334 | 0.00803 | 0.0218 | 0.0283 | 0.0137 |
| B4 | – | – | 0.0004 | 0.00374 | 0.00519 | 0.00588 | 0.00016 | 0.0258 |
| B5 | – | – | 0.172 | 0.206 | 0.297 | 0.0172 | 0.216 | 0.405 |
